{"source": "paper PMC9054013", "about": "“FCHO controls AP2’s initiating role in endocytosis through a PtdIns(4,5)P2-dependent switch” (Science Advances, 2022)", "key": {"[1]": {"system": "AP2 core", "test": "Liposome spin-downs / GSH Sepharose pull-down of AP2 core with GST-FCHO2 linker", "assay_type": "biochemical", "settings": "for increase in steady-state efficiency of AP2 membrane recruitment: GST-FCHO2 vs GST-ARRS control, densitometry, 3 independent experiments", "experimental": "GST-FCHO2 WT linker or a nonbinding control (GST-ARRS control) at a final concentration of 30 μM was incubated at 4°C for 30 min with AP2 core at a concentration of 2.5 μM, in 95% HKT buffer with lysozyme (0.2 mg/ml) as a “carrier,” AEBSF (25 μg/ml), and 5 mM DTT. Core buffer (contributed by the purified AP2) was restricted to 5% of the volume. The mixture was then centrifuged briefly to remove any insoluble material. Samples were removed and added to either an equal volume of liposomes [containing phosphatidylcholine (PC)/phosphatidylethanolamine (PE), PC/PE/PS/PtdIns(4,5)P2, or PC/PE/PS/ PtdIns(4,5)P2/TGN38] or an equal bed volume of GSH Sepharose beads prewashed into HKT buffer. Final concentrations were therefore 15 μM (GST-FCHO2/ARRS) and 1.25 μM AP2. The mixtures were incubated for 30 min at 21°C with continuous gentle inversion, then the liposomes were pelleted by centrifugation, supernatants were removed, and the pellets resuspended in an equal volume before the addition of SDS loading dye and analysis by SDS-PAGE. The GSH Sepharose beads were washed three times with 1 ml of HKT supplemented with lysozyme (0.2 mg/ml), AEBSF (25 μg/ml), and 5 mM DTT, then resuspended in the same buffer, and analyzed by SDS-PAGE. All experiments were done in triplicate."}, "[2]": {"target": "AP2 core", "test": "BLI of AP2 core binding to immobilized GST-FCHO linkers", "settings": "BLI equilibrium analysis, GST-linker on anti-GST biosensors, 25°C, near-physiological conditions, AP2 core closed", "experimental": "Real-time kinetic measurements of AP2 core binding to immobilized GST-FCHO1 linker and GST-FCHO2 linker at 25°C were conducted using an Octet RED96 (Pall FortéBio). AP2 concentrations varied by twofold dilution series (13.5 to 0.8 and 10.0 to 0.2 μM, respectively). Samples and buffers were dispensed into 96-well microtiter plates (Greiner) at a volume of 200 μl per well. Anti-GST biosensors (Pall FortéBio) were incubated in the specific assay buffer for at least 30 min before loading with the appropriate GST-FCHO linker for 5 min, followed by blocking with GST-ARRS control for 10 min. Negative controls were analyzed with biosensors uniquely loaded with the GST-ARRS control. Every binding experiment consisted of three steps: incubation for 10 min in the specific assay buffer, followed by 15 min of incubation with AP2 in the same buffer (association phase), and then by 10 min of incubation with the same buffer without AP2 to measure AP2 off rate (dissociation phase). […]\nData were processed with the Octet Data Acquisition 7.0 software, individually fitted using ForteBio Analysis software 7.0, and subsequently further analyzed with the PRISM software (GraphPad) to determine equilibrium dissociation constants (KD). The maximum binding capacity of each biosensor was scaled with respect to each other, according to the molecular weight of the AP2 analyzed."}}, "note": "“And” between values parts separate entries of the source, which are not always exact repeats. Equal values may be shown once."}
{"molecule": "FCHO2 linker: FCHO2 interdomain linker wt, residues 314 to 444, GST fusion (protein, left off: GST, end not stated, kept, FCHO2 interdomain linker wt, residues 314 to 444, GST fusion) NIPDVDEEGYSIKPETNQNDTKENHFYSSSDSDSEDEEPKKYRIEIKPMHPNNSHHTMASLDELKVSIGNITLSPAISRHSPVQMNRNLSNEELTKSKPSAPPNEKGTSDLLAWDPLFGPSLDSSSSSSLT", "values": [{"measurement": "ratio of FCHO2:AP2 on beads relative to PtdIns(4,5)P2-containing liposomes", "setting": "[1]; GST-FCHO2 linker 15 μM, AP2 core 1.25 μM, three independent experiments", "value": "~ 20 fold"}, {"measurement": "increase in steady-state efficiency of AP2 membrane recruitment", "setting": "[1]; PtdIns(4,5)P2-only liposomes", "value": "~ 13%"}, {"measurement": "increase in steady-state efficiency of AP2 membrane recruitment", "setting": "[1]; liposomes containing both PtdIns(4,5)P2 and cargo", "value": "~ 22%"}, {"measurement": "Kd", "setting": "[2]", "value": "~10 µM and 9.8 µM"}]}
{"molecule": "FCHO1 linker: FCHO1 interdomain linker wt (N123C), residues 316 to 444, GST fusion (protein, left off: GST, end not stated, kept, FCHO1 interdomain linker wt (N123C), residues 316 to 444, GST fusion) TCPEVDEEGFTVRPDVTQNSTAEPSRFSSSDSDFDDEEPRKFYVHIKPAPARAPACSPEAAAAQLRATAGSLILPPGPGGTMKRHSSRDAAGKPQRPRSAPRTSSCAERLQSEEQVSKNLFGPPLESAF", "values": [{"measurement": "Kd", "setting": "[2]", "value": "~10 µM and 8.5 µM"}]}
